Reference: PMC8065156, “Specificity of AMPylation of the human chaperone BiP is mediated by TPR motifs of FICD” (Nature Communications, 2021)
Substitutions are numbered along the chain they refer to. In names and notes the source's numbering stands. One block for each binder: values may come before it.

Key:
[1] = target: T1, BiP 19–654 (human, UniProt P11021 19-654); experiment: cell-based or functional assay
[2] = target: T2, BiP 28–549 T229A (human, UniProt P11021 28-549, T229A, T518 covalently linked through TReND-2 to C404 of FICD); experiment: crystal structure; complex covalently linked through TReND-2 (C404 of FICD to T518 of BiP); crystallised with 1 mM AMP-PNP, 1 mM MgCl2, 10% glycerol; 0.2 M NaCl, 0.1 M Na/K phosphate pH 6.2, 10% PEG 8000, 19 °C; details: both partners purified
T2 construct: BiP, human, residues 28-549 of NP_005338.1; also called complexed BiP; source: E. coli Rosetta (DE3), purified (Ni-NTA, SEC); not shown: His6, N-terminal, cleaved
T2 sequence (P11021 28-549 T229A): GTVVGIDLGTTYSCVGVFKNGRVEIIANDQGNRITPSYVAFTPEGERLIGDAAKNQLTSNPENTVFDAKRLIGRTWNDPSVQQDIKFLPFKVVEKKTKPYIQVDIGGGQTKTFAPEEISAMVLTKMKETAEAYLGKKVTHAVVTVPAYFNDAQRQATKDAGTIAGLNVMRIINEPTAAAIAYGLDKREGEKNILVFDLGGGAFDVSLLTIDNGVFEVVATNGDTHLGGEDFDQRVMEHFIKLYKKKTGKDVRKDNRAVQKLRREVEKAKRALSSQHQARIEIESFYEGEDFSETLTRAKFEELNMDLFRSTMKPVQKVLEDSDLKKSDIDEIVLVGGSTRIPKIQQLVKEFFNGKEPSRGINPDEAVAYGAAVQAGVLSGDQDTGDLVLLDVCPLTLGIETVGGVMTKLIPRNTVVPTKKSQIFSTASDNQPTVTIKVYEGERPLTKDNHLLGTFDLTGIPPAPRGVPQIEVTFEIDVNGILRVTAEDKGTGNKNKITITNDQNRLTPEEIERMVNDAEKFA

[3] = target: T1, BiP 19–654
[4] = target: T1, BiP 19–654; remark: listed apart in the source
[5] = target: T3, BiP 19–654 T229A T518A (human, UniProt P11021 19-654, T229A | T518A); experiment: SEC; 5 µM FICD incubated with 100 µM BiP in HKM buffer with 5 mM ATP for at least 2 h; Superdex 10/300 75 pg; details: both partners purified
T3 construct: BiP, human, residues 19-654 of NP_005338.1; source: E. coli Rosetta (DE3), purified (Ni-NTA, SEC)
T3 sequence (P11021 19-654 T229A/T518A): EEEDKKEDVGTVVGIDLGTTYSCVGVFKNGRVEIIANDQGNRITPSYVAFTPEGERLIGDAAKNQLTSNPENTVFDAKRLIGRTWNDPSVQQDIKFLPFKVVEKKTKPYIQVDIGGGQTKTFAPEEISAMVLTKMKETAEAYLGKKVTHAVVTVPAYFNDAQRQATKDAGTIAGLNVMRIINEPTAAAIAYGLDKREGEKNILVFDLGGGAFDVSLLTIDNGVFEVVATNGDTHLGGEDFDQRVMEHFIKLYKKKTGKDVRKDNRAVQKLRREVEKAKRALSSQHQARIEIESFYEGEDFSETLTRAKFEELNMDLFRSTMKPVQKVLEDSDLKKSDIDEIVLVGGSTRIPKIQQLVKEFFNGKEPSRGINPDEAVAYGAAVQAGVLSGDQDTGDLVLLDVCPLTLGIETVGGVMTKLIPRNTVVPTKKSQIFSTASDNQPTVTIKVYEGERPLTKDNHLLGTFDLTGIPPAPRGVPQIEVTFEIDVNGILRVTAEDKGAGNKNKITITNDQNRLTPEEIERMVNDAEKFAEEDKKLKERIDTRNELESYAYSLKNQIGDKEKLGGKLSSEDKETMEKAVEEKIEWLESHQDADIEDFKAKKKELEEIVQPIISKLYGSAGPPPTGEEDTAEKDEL

[6] = target: BiP 19–654 V241A (human, UniProt P11021 19-654, V241A); experiment: cell-based or functional assay
BiP 19–654 V241A, sequence (P11021 19-654 V241A): as the sequence (P11021 19-654 T229A/T518A) above, with A211T, V223A, A500T counted along it

[7] = target: BiP 19–654 R197A (human, UniProt P11021 19-654, R197A); experiment: cell-based or functional assay
BiP 19–654 R197A, sequence (P11021 19-654 R197A): as the sequence (P11021 19-654 T229A/T518A) above, with R179A, A211T, A500T counted along it

[8] = target: BiP 19–654 V415A (human, UniProt P11021 19-654, V415A); experiment: cell-based or functional assay
BiP 19–654 V415A, sequence (P11021 19-654 V415A): as the sequence (P11021 19-654 T229A/T518A) above, with A211T, V397A, A500T counted along it

[9] = target: BiP 19–654 D238A (human, UniProt P11021 19-654, D238A); experiment: cell-based or functional assay
BiP 19–654 D238A, sequence (P11021 19-654 D238A): as the sequence (P11021 19-654 T229A/T518A) above, with A211T, D220A, A500T counted along it

[10] = target: BiP 19–654 E217A (human, UniProt P11021 19-654, E217A); experiment: cell-based or functional assay
BiP 19–654 E217A, sequence (P11021 19-654 E217A): as the sequence (P11021 19-654 T229A/T518A) above, with E199A, A211T, A500T counted along it

T1 sequence (P11021 19-654): as the sequence (P11021 19-654 T229A/T518A) above, with A211T, A500T counted along it

B1: FICD 102–445 E234G E404C^TReND-2 (enzyme, human, UniProt Q9BVA6 102-445, looked up)
chain: GKLEARAALNQALEMKRQGKREKAQKLFMHALKMDPDFVDALTEFGIFSEEDKDIIQADYLYTRALTISPYHEKALVNRDRTLPLVEEIDQRYFSIIDSKVKKVMSIPKGNSALRRVMEETYYHHIYHTVAIGGNTLTLSEIRHILETRYAVPGKSLEEQNEVIGMHAAMKYINTTLVSRIGSVTISDVLEIHRRVLGYVDPVEAGRFRTTQVLVGHHIPPHPQDVEKQMQEFVQWLNSEEAMNLHPVEFAALAHYKLVYIHPFIDGNGRTSRLLMNLILMQAGYPPITIRKEQRSDYYHVLCAANEGDVRPFIRFIAKCTETTLDTLLFATTEYSVALPEAQP
modifications: TReND-2 (thiol-reactive nucleotide derivative) on C404
rate of covalent ternary complex formation (SDS-PAGE, densitometry) with 0.5 mM ATP against 0.5 mM ADP [1]: ~15 fold faster
rate of covalent ternary complex formation (SDS-PAGE, densitometry) without nucleotide against 0.5 mM ATP [1]: 173 fold slower

B3: FICD 102–458 L258D E105A (enzyme)
chain: GKLAARAALNQALEMKRQGKREKAQKLFMHALKMDPDFVDALTEFGIFSEEDKDIIQADYLYTRALTISPYHEKALVNRDRTLPLVEEIDQRYFSIIDSKVKKVMSIPKGNSALRRVMEETYYHHIYHTVAIEGNTLTLSEIRHILETRYAVPGKSDEEQNEVIGMHAAMKYINTTLVSRIGSVTISDVLEIHRRVLGYVDPVEAGRFRTTQVLVGHHIPPHPQDVEKQMQEFVQWLNSEEAMNLHPVEFAALAHYKLVYIHPFIDGNGRTSRLLMNLILMQAGYPPITIRKEQRSDYYHVLEAANEGDVRPFIRFIAKCTETTLDTLLFATTEYSVALPEAQPNHSGFKETLPVKP
AMPylation of BiP 19–654 WT by the FICD 102–458 L258D mutant, 30 min, western blot with αAMP antibody, against FICD L258D [3]: 80 % reduction

B4: FICD 102–458 L258D H401A (enzyme)
chain: B3 chain with A4E, H300A
AMPylation of BiP 19–654 WT by the FICD 102–458 L258D Fic-domain mutant, 30 min, western blot with αAMP antibody, against FICD L258D [4]: 60 % impaired

B6: FICD 102–458 L258D E404A (enzyme)
chain: B3 chain with A4E, E303A
AMPylation of BiP 19–654 WT by the FICD 102–458 L258D Fic-domain mutant, 30 min, western blot with αAMP antibody, against FICD L258D [4]: 75 % impaired

B8: FICD 102–458 L258D K121A (enzyme)
chain: B3 chain with A4E, K20A
AMPylation of BiP 19–654 WT by the FICD 102–458 L258D mutant, 30 min, western blot with αAMP antibody, against FICD L258D [3]: > 98 % reduction

B9: FICD 102–458 L258D H318A (enzyme)
chain: B3 chain with A4E, H217A
AMPylation of BiP 19–654 WT by the FICD 102–458 L258D Fic-domain mutant, 30 min, western blot with αAMP antibody, against FICD L258D [4]: 45 % impaired

The next lines start with the values.

binding result [2]: binds
B2: FICD 102–445 T168A T183A E234G L258D E404C^TReND-2 (enzyme, human, UniProt Q9BVA6 102-445, looked up)
chain: B1 chain with T67A, T82A, L157D
modifications: TReND-2 (thiol-reactive nucleotide derivative) on C404, covalently linked to T518 of BiP
notes: FICD (HYPE), human, residues 102-445 of NP_009007.2; also called FICD^TReND-2; HYPE; source: E. coli Rosetta (DE3), purified (Ni-NTA, SEC)

AMPylation of BiP 19–654 WT by the FICD 102–458 L258D mutant, 30 min, western blot with αAMP antibody, against FICD L258D [3]: > 98 % reduction
B5: FICD 102–458 L258D K127A (enzyme)
chain: B3 chain with A4E, K26A

AMPylation of BiP 19–654 WT by the FICD 102–458 L258D mutant, 30 min, western blot with αAMP antibody, against FICD L258D [3]: > 98 % reduction
B7: FICD 102–458 L258D K124A (enzyme)
chain: B3 chain with A4E, K23A

binding result [5]: binds
AMPylation of the BiP 19–654 mutant by FICD 102–458 L258D, 30 min, western blot with αAMP antibody, against BiP WT [6]: > 95 % decrease
AMPylation of the BiP 19–654 mutant by FICD 102–458 L258D, 30 min, western blot with αAMP antibody, against BiP WT [7]: > 80 % decrease
AMPylation of the BiP 19–654 mutant by FICD 102–458 L258D, 30 min, western blot with αAMP antibody, against BiP WT [8]: 70 % decrease
AMPylation of the BiP 19–654 mutant by FICD 102–458 L258D, 30 min, western blot with αAMP antibody, against BiP WT [9]: > 80 % decrease
AMPylation of the BiP 19–654 mutant by FICD 102–458 L258D, 30 min, western blot with αAMP antibody, against BiP WT [10]: > 80 % decrease
B10: FICD 102–458 L258D (enzyme, human, UniProt Q9BVA6 102-458, looked up)
chain: B3 chain with A4E
notes: FICD (HYPE), human, residues 102-458 of NP_009007.2; also called FICD L258D; monomeric FICD; source: E. coli Rosetta (DE3), purified (Ni-NTA, SEC)

AMPylation of BiP 19–654 WT by the FICD 102–458 L258D Fic-domain mutant, 30 min, western blot with αAMP antibody, against FICD L258D [4]: 95 % decrease
B11: FICD 102–458 L258D R396A (enzyme)
chain: B3 chain with A4E, R295A
